These results are taken from article PMC8346517, “The intervening domain is required for DNA-binding and functional identity of plant MADS transcription factors” (Nature Communications, 2021).

This series concerns the molecule itself. The series can be described thus: crystal structure; SEP3 MI at 6 mg/ml, without DNA; 0.2 M potassium sodium tartrate, 0.1 M bis-tris propane pH 7.5, 20% PEG 3350, 4 °C; space group C222(1), dimers formed by crystallographic symmetry.

B1: SEP3^MI (MADS-box and I domain of …3, residues 1-90) (domain or fragment)
chain: not shown
notes: His6-MBP fusion from the vector pETM41, cleaved with TEV protease; residues 1-18 and the 17 C-terminal residues are disordered in the crystal; also called SEP3 MI domain; source: E. coli BL21 Codon Plus, purified (Ni-NTA, heparin, TEV cleavage, Ni-NTA, heparin)
In the case of B1, the binding result is recorded as “binds”.
